Test results from article PMC4570213.

Target: SP1 (endogenous, PIG1 nuclear extract) (UniProt P08047)
Assay: EMSA, supershift
Conditions: 10 ug PIG1 nuclear extract, 300 fmol biotin probe, 1.5 ug poly(dI-dC), kit binding buffer (LightShift; composition, salt and pH not given), 15 ul, 20 min room …

Sequence of SP1 (endogenous, PIG1 nuclear extract) (P08047 whole entry): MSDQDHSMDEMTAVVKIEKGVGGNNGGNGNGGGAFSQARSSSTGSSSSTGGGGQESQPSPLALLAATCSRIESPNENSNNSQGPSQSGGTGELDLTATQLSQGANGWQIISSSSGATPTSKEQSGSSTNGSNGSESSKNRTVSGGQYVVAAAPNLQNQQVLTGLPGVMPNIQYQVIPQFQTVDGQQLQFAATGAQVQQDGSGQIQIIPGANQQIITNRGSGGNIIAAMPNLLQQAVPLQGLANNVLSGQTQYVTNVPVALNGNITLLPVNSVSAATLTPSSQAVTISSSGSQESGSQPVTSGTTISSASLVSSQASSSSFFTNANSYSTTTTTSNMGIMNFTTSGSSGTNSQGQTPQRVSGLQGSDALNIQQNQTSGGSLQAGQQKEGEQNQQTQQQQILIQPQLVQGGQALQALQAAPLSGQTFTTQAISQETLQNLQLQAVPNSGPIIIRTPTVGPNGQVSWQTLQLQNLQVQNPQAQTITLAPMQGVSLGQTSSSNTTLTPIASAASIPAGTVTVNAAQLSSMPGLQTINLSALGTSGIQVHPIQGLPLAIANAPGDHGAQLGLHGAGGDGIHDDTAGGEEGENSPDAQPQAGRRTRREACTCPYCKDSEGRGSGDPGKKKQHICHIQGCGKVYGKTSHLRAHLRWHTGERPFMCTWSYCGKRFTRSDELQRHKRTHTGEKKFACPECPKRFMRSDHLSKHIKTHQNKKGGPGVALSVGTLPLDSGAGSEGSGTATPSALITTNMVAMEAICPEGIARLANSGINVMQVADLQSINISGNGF

## AAGACGGAATGGAATCCAGATGGGCGGGGG (double strand) [AHR promoter -129C probe]
  binding signal (% of -129C band): 100

## AAGATGGAATGGAATCCAGATGGGCGGGGG (double strand) [AHR promoter -129T probe]
  binding signal (% of -129C band): > 100
